For the experiment, the target named is Recombinant P-selectin protein (UniProt P16109). In words: SPR; BIAcore T200; recombinant P-selectin immobilised by carbodiimide chemistry on a CM4 sensor chip (ligand); PSGL-1-targeted and non-targeted liposomes as analyte.
Sequence of UniProt P16109 (P16109 42-830): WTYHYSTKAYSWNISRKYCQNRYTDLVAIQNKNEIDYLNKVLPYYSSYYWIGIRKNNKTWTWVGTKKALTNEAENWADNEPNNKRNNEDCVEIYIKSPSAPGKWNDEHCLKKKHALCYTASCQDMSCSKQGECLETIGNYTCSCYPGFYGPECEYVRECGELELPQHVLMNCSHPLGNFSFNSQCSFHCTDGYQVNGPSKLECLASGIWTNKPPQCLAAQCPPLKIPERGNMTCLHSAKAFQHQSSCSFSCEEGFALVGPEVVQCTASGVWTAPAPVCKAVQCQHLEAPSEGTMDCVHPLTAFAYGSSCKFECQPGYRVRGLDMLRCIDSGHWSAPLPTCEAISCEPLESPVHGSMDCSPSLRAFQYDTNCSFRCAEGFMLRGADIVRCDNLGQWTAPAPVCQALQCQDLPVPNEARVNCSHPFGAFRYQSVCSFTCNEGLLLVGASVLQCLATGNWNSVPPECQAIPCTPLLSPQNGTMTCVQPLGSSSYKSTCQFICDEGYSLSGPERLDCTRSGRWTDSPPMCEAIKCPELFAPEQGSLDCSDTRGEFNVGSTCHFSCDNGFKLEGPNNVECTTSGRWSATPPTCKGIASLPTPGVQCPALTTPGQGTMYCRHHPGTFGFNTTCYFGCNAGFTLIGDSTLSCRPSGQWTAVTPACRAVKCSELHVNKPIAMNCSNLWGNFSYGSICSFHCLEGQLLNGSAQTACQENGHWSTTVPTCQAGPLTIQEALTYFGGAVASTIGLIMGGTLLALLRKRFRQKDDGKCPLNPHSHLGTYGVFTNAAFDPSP

On to “Recombinant P-selectin glycoprotein ligand-1 (PSGL-1) protein, conjugated to the surface of liposomes (from UniProt Q14242 42-412)”, for which the fold increase in binding against non-targeted liposomes is 8 fold.

Source of the values: article PMC7699624.
